Data taken from IntAct's records for PubMed 24968893.

B1: Autophagy-related protein 19 (Saccharomyces cerevisiae), P35193 (parent)
chain: MNNSKTNQQMNTSMGYPLTVYDECNKFQLIVPTLDANIMLWCIGQLSLLNDSNGCKHLFWQPNDKSNVRILLNNYDYGHLFKYLQCQRKCSVYIGEGTLKKYNLTISTSFDNFLDLTPSEEKESLCREDAHEDPVSPKAGSEEEISPNSTSNVVVSRECLDNFMKQLLKLEESLNKLELEQKVTNKEPNHRISGTIDIPEDRSELVNFFTELKTVKQLEDVFQRYHDYERLSQECDSKTEIASDHSKKETKIEVEPPNERSLQITMNQRDNSLYFQLFNNTNSVLAGNCKLKFTDAGDKPTTQIIDMGPHEIGIKEYKEYRYFPYALDLEAGSTIEIENQYGEVIFLGKYGSSPMINLRPPSRLSAESLQASQEPFYSFQIDTLPELDDSSIISTSISLSYDGDDNEKALTWEEL
partner: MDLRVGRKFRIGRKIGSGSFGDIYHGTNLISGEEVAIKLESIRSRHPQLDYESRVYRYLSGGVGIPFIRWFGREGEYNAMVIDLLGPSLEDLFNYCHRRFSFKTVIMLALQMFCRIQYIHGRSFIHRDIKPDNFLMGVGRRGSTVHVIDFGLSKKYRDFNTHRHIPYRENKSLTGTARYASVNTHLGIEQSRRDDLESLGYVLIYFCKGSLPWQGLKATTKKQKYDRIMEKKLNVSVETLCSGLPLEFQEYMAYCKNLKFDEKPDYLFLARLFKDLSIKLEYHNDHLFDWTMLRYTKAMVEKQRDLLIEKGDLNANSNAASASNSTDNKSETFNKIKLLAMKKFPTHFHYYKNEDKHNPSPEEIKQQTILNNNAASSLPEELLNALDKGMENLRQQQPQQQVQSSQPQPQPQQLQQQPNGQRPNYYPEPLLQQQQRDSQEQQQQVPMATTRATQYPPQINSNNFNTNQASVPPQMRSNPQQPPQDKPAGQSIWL
B2: Serine/threonine-protein kinase ATG1 (Saccharomyces cerevisiae), P53104 (parent)
chain: MGDIKNKDHTTSVNHNLMASAGNYTAEKEIGKGSFATVYRGHLTSDKSQHVAIKEVSRAKLKNKKLLENLEIEIAILKKIKHPHIVGLIDCERTSTDFYLIMEYCALGDLTFLLKRRKELMENHPLLRTVFEKYPPPSENHNGLHRAFVLSYLQQLASALKFLRSKNLVHRDIKPQNLLLSTPLIGYHDSKSFHELGFVGIYNLPILKIADFGFARFLPNTSLAETLCGSPLYMAPEILNYQKYNAKADLWSVGTVVFEMCCGTPPFRASNHLELFKKIKRANDVITFPSYCNIEPELKELICSLLTFDPAQRIGFEEFFANKVVNEDLSSYELEDDLPELESKSKGIVESNMFVSEYLSKQPKSPNSNLAGHQSMADNPAELSDALKNSNILTAPAVKTDHTQAVDKKASNNKYHNSLVSDRSFEREYVVVEKKSVEVNSLADEVAQAGFNPNPIKHPTSTQNQNVLLNEQFSPNNQQYFQNQGENPRLLRATSSSSGGSDGSRRPSLVDRRLSISSLNPSNALSRALGIASTRLFGGANQQQQQQQITSSPPYSQTLLNSQLFHELTENIILRIDHLQHPETLKLDNTNIVSILESLAAKAFVVYSYAEVKFSQIVPLSTTLKGMANFENRRSMDSNAIAEEQDSDDAEEEDETLKKYKEDCLSTKTFGKGRTLSATSQLSATFNKLPRSEMILLCNEAIVLYMKALSILSKSMQVTSNWWYESQEKSCSLRVNVLVQWLREKFNECLEKADFLRLKINDLRFKHASEVAENQTLEEKGSSEEPVYLEKLLYDRALEISKMAAHMELKGENLYNCELAYATSLWMLETSLDDDDFTNAYGDYPFKTNIHLKSNDVEDKEKYHSVLDENDRIIIRKYIDSIANRLKILRQKMNHQN
partner: B1 chain
B3: Autophagy-related protein 19 (Saccharomyces cerevisiae), P35193 (parent)
chain: B1 chain
partner: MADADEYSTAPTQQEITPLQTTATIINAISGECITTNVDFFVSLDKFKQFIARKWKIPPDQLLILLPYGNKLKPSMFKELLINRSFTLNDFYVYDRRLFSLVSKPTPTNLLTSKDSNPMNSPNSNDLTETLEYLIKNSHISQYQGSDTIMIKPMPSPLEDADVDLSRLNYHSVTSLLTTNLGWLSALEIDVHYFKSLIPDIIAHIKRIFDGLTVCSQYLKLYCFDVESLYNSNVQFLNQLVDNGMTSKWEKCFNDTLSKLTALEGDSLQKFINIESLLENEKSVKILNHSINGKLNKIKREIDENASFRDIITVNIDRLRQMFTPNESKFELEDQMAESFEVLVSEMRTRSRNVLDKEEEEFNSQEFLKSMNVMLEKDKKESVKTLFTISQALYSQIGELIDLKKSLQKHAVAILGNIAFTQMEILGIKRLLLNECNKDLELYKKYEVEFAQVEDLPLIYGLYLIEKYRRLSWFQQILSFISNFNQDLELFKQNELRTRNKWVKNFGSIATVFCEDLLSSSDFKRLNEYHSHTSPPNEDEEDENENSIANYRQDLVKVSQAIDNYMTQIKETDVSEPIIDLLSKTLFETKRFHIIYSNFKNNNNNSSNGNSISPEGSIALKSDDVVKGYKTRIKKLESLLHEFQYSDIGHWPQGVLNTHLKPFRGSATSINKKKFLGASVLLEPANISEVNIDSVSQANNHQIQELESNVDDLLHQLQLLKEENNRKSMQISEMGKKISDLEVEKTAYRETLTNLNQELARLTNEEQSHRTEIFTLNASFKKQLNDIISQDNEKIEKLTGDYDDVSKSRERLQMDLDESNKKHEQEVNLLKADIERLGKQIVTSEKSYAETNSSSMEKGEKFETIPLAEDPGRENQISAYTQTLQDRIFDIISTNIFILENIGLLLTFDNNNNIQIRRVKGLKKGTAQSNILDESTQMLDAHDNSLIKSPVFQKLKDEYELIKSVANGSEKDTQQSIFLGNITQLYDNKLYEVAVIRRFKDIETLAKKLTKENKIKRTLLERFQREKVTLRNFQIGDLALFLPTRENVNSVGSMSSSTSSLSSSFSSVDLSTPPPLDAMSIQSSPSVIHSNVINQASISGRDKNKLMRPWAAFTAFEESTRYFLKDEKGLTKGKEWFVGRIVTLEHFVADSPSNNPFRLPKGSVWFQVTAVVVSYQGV
B4: Autophagy-related protein 19 (Saccharomyces cerevisiae), P35193 (parent)
chain: B1 chain
partner: B2 chain

Variants of: B1
Settings: with hrr25_yeast HRR25, P29295

effect of a mutation on the interaction	Variant
disrupting interaction	MNNSKTNQQMNTSMGYPLTVYDECNKFQLIVPTLDANIMLWCIGQLSLLNDSNGCKHLFWQPNDKSNVRILLNNYDYGHLFKYLQCQRKCSVYIGEGTLKKYNLTISTSFDNFLDLTPSEEKESLCREDAHEDPVSPKAGSEEEISPNSTSNVVVSRECLDNFMKQLLKLEESLNKLELEQKVTNKEPNHRISGTIDIPEDRSELVNFFTELKTVKQLEDVFQRYHDYERLSQECDSKTEIASDHSKKETKIEVEPPNERSLQITMNQRDNSLYFQLFNNTNSVLAGNCKLKFTDAGDKPTTQIIDMGPHEIGIKEYKEYRYFPYALDLEAGSTIEIENQYGEVIFLGKYGSSPMINLRPPSRLSAESLQASQEPFYSFQIDTLPELDDAAIISTAISLSYDGDDNEKALTWEEL [S390A;S391A;S396A]

Variants of: B2
Settings: with atg19_yeast ATG19, P35193

effect of a mutation on the interaction	Variant
disrupting interaction	D211A

Variants of: B3
Settings: with atg11_yeast ATG11, Q12527

effect of a mutation on the interaction	Variant
disrupting interaction	MNNSKTNQQMNTSMGYPLTVYDECNKFQLIVPTLDANIMLWCIGQLSLLNDSNGCKHLFWQPNDKSNVRILLNNYDYGHLFKYLQCQRKCSVYIGEGTLKKYNLTISTSFDNFLDLTPSEEKESLCREDAHEDPVSPKAGSEEEISPNSTSNVVVSRECLDNFMKQLLKLEESLNKLELEQKVTNKEPNHRISGTIDIPEDRSELVNFFTELKTVKQLEDVFQRYHDYERLSQECDSKTEIASDHSKKETKIEVEPPNERSLQITMNQRDNSLYFQLFNNTNSVLAGNCKLKFTDAGDKPTTQIIDMGPHEIGIKEYKEYRYFPYALDLEAGSTIEIENQYGEVIFLGKYGSSPMINLRPPSRLSAESLQASQEPFYSFQIDTLPELDDAAIISTAISLSYDGDDNEKALTWEEL [S390A;S391A;S396A]

Variants of: B3
Settings: with atg11_yeast ATG11, Q12527
Remark: another data set of the same source

effect of a mutation on the interaction	Variant
disrupting interaction	MNNSKTNQQMNTSMGYPLTVYDECNKFQLIVPTLDANIMLWCIGQLSLLNDSNGCKHLFWQPNDKSNVRILLNNYDYGHLFKYLQCQRKCSVYIGEGTLKKYNLTISTSFDNFLDLTPSEEKESLCREDAHEDPVSPKAGSEEEISPNSTSNVVVSRECLDNFMKQLLKLEESLNKLELEQKVTNKEPNHRISGTIDIPEDRSELVNFFTELKTVKQLEDVFQRYHDYERLSQECDSKTEIASDHSKKETKIEVEPPNERSLQITMNQRDNSLYFQLFNNTNSVLAGNCKLKFTDAGDKPTTQIIDMGPHEIGIKEYKEYRYFPYALDLEAGSTIEIENQYGEVIFLGKYGSSPMINLRPPSRLSAESLQASQEPFYSFQIDTLPELDDAAIISTAISLSYDGDDNEKALTWEEL [S390A;S391A;S396A]

Variants of: B3
Settings: with atg11_yeast ATG11, Q12527
Remark: another data set of the same source

effect of a mutation on the interaction	Variant
increasing interaction	MNNSKTNQQMNTSMGYPLTVYDECNKFQLIVPTLDANIMLWCIGQLSLLNDSNGCKHLFWQPNDKSNVRILLNNYDYGHLFKYLQCQRKCSVYIGEGTLKKYNLTISTSFDNFLDLTPSEEKESLCREDAHEDPVSPKAGSEEEISPNSTSNVVVSRECLDNFMKQLLKLEESLNKLELEQKVTNKEPNHRISGTIDIPEDRSELVNFFTELKTVKQLEDVFQRYHDYERLSQECDSKTEIASDHSKKETKIEVEPPNERSLQITMNQRDNSLYFQLFNNTNSVLAGNCKLKFTDAGDKPTTQIIDMGPHEIGIKEYKEYRYFPYALDLEAGSTIEIENQYGEVIFLGKYGSSPMINLRPPSRLSAESLQASQEPFYSFQIDTLPELDDDDIISTDISLSYDGDDNEKALTWEEL [S390D;S391D;S396D]

Variants of: B4
Settings: with atg1_yeast ATG1, P53104

effect of a mutation on the interaction	Variant
disrupting interaction	MNNSKTNQQMNTSMGYPLTVYDECNKFQLIVPTLDANIMLWCIGQLSLLNDSNGCKHLFWQPNDKSNVRILLNNYDYGHLFKYLQCQRKCSVYIGEGTLKKYNLTISTSFDNFLDLTPSEEKESLCREDAHEDPVSPKAGSEEEISPNSTSNVVVSRECLDNFMKQLLKLEESLNKLELEQKVTNKEPNHRISGTIDIPEDRSELVNFFTELKTVKQLEDVFQRYHDYERLSQECDSKTEIASDHSKKETKIEVEPPNERSLQITMNQRDNSLYFQLFNNTNSVLAGNCKLKFTDAGDKPTTQIIDMGPHEIGIKEYKEYRYFPYALDLEAGSTIEIENQYGEVIFLGKYGSSPMINLRPPSRLSAESLQASQEPFYSFQIDTLPELDDAAIISTAISLSYDGDDNEKALTWEEL [S390A;S391A;S396A]

Variants of: B4
Settings: with atg1_yeast ATG1, P53104
Remark: another data set of the same source

effect of a mutation on the interaction	Variant
disrupting interaction	MNNSKTNQQMNTSMGYPLTVYDECNKFQLIVPTLDANIMLWCIGQLSLLNDSNGCKHLFWQPNDKSNVRILLNNYDYGHLFKYLQCQRKCSVYIGEGTLKKYNLTISTSFDNFLDLTPSEEKESLCREDAHEDPVSPKAGSEEEISPNSTSNVVVSRECLDNFMKQLLKLEESLNKLELEQKVTNKEPNHRISGTIDIPEDRSELVNFFTELKTVKQLEDVFQRYHDYERLSQECDSKTEIASDHSKKETKIEVEPPNERSLQITMNQRDNSLYFQLFNNTNSVLAGNCKLKFTDAGDKPTTQIIDMGPHEIGIKEYKEYRYFPYALDLEAGSTIEIENQYGEVIFLGKYGSSPMINLRPPSRLSAESLQASQEPFYSFQIDTLPELDDDDIISTDISLSYDGDDNEKALTWEEL [S390D;S391D;S396D]
